According to paper PMC5814800:

Target: T25-ϕC31 gp3 (wild type) fusion protein
Test: bacterial two-hybrid (B2H) β-galactosidase assay
Settings: parent: est. 0.14; read off a plot

Substance | response (ΔOD420/min/ml)
wild-type ϕC31 integrase fused to T18 (Int-T18 fusion, pEY111) (from UniProt Q9T221) I420A | 0.019
wild-type ϕC31 integrase fused to T18 (Int-T18 fusion, pEY111) (from UniProt Q9T221) I420A; I582T | -0.009
wild-type ϕC31 integrase fused to T18 (Int-T18 fusion, pEY111) (from UniProt Q9T221) I420A; I582V | -0.016
wild-type ϕC31 integrase fused to T18 (Int-T18 fusion, pEY111) (from UniProt Q9T221) I420V | 0.13
wild-type ϕC31 integrase fused to T18 (Int-T18 fusion, pEY111) (from UniProt Q9T221) I420V; I582V | 0.021
wild-type ϕC31 integrase fused to T18 (Int-T18 fusion, pEY111) (from UniProt Q9T221) I582A | 0.027
wild-type ϕC31 integrase fused to T18 (Int-T18 fusion, pEY111) (from UniProt Q9T221) I582G | 0.037
wild-type ϕC31 integrase fused to T18 (Int-T18 fusion, pEY111) (from UniProt Q9T221) I582L | 0.15
wild-type ϕC31 integrase fused to T18 (Int-T18 fusion, pEY111) (from UniProt Q9T221) I582T | 0.068
wild-type ϕC31 integrase fused to T18 (Int-T18 fusion, pEY111) (from UniProt Q9T221) I582V | 0.1
wild-type ϕC31 integrase fused to T18 (Int-T18 fusion, pEY111) (from UniProt Q9T221) W526A | 0.023
wild-type ϕC31 integrase fused to T18 (Int-T18 fusion, pEY111) (from UniProt Q9T221) W526F | 0.21
wild-type ϕC31 integrase fused to T18 (Int-T18 fusion, pEY111) (from UniProt Q9T221) W526R | 0.008
